Experimental data reported in patent US20200277355A1.
Read-outs that look alike come from different tables or passages of the source.

How the values were obtained:
TNFR1 [1] = biological target: T1, TNFR1
T1 chain: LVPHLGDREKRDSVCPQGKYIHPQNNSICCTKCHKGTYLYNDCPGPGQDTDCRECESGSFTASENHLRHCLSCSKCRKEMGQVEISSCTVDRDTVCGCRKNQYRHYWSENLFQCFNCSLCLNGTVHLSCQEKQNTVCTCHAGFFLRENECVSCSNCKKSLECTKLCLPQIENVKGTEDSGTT

TNFR1 [2] = biological target: T1, TNFR1
TNFR1 [3] = biological target: T1, TNFR1
TNFR1 [4] = biological target: T1, TNFR1; assay: SPR (BIAcore), TNFR1 on CM-5 chip, peptide injected

B1: selective TNFR1 antagonist peptide Hydrostatin-SN10 (peptide)
peptide: DEQHLETELH
modifications: not checked
Kd (TNFR1 [1]): 2800 nM
Kd (TNFR1 [2]): 2780 nM
Kd (TNFR1 [3]): 2830 nM
Kd (TNFR1 [4]): 2800 nM
